Earlier results on 1 substance are cited in PMC4853784.

The data set deals with V1b receptor (Homo sapiens) (UniProt P47901). As to the kind of experiment: radioligand.
UniProt P47901, sequence (P47901 whole entry): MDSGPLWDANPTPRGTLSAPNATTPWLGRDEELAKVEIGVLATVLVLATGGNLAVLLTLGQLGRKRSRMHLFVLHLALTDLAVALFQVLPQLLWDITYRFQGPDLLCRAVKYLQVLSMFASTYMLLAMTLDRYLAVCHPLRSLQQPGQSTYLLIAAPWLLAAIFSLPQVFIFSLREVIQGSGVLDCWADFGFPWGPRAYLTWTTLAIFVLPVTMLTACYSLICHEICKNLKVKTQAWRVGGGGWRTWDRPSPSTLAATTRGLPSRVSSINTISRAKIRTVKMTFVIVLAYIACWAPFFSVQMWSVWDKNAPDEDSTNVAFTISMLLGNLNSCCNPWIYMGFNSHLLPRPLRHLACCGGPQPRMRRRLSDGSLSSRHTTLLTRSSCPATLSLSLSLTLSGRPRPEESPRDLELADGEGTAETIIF

For the substance vasopressin (from UniProt P01185), the Kd (in general, the concentration at which binding is half-saturated) was 1.8 nM.
